Data published in the supplement of paper PMC7877785.
± gives the uncertainty stated by the source.

Assay: self-splicing fitness, log relative to wild type (ln ratio); higher = more splicing; Tetrahymena group I intron in knt gene, E. coli kanamycin selection, DiMSum; sequences stand for … in CUCUCU…GGAGGGAAAAGUUAUCAGGCAUGCACCUGGUAGCUAGUCUUUAAACCAAUAGAUUGCAUCGGUUUAAAAGGCAAGACCGUCAAAUUGCGGGAAAGGGGUCAACAGCCGUUCAGUACCAAGUCUCAGGGGAAACUUUGAGAUGGCCUUGCAAAGGGUAUGGUAAUAAGCUGACGGACAUGGUCCUAACCACGCAGCCAAGUCCUAAGUCAACAGAUCUUCUGUUGAUAUGGAUGCAGUUCACAGACUAAAUGUCGGUCGGGGAAGAUGUAUUCUUCUCAUAAGAUAUAGUCGGACCUCUCCUUAAUGGGAGCUAGCGGAUGAAGUGAUGCAACACUGGAGCCGCUGGGAACUAAUUUGUAUGCGAAAGUAUAUUGAUUAGUUUUGGAGUACUCGUGGUCG
In short: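 Library with all eight P1ex-region intron nucleotides randomised, intron inside the knt kanamycin-resistance gene on pET-22b(+), in E. coli BL21(DE3). Cells grew overnight at 37°C or 30°C on LB agar with or without 25 μg/mL kanamycin (plus 100 μg/mL carbenicillin, 50 μM IPTG, 0.2% rhamnose), in six replicate transformations. Pooled colonies were amplicon-sequenced on Illumina HiSeq 2500. DiMSum fitness is the error-weighted combination of wild-type-normalised replicate fold changes, kanamycin versus none.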

Sequence	self-splicing fitness (ln) (30 °C)	self-splicing fitness (ln) (37 °C)
AGUGAGCAAUAUUACGGUGU	-4.01 ± 0.29	-3.73 ± 0.34
AGUGAGCAAUAUUACGUAAA	-3.58 ± 0.22	-1.3 ± 0.18
AGUUAGCAAUAUUACGAAUU	-1.62 ± 0.11	-0.649 ± 0.12
AGUUAGCAAUAUUACGACAG	-0.556 ± 0.098	-0.495 ± 0.12
AGUUAGCAAUAUUACGACCU	-0.34 ± 0.09	-0.469 ± 0.097
AGUUAGCAAUAUUACGACGC	-0.0216 ± 0.11	0.486 ± 0.13
AGUUAGCAAUAUUACGAUGU	-1.48 ± 0.096	-0.307 ± 0.11
AGUUAGCAAUAUUACGAUUU	0.0118 ± 0.094	0.175 ± 0.11
AGUUAGCAAUAUUACGCCUG	-1.74 ± 0.21	-1.46 ± 0.25
AGUUAGCAAUAUUACGCGGG	-4.1 ± 0.33	-0.533 ± 0.15
AGUUAGCAAUAUUACGCUCG	-0.0767 ± 0.16	-0.636 ± 0.19
AGUUAGCAAUAUUACGGCAA	-0.82 ± 0.08	0.163 ± 0.11
AGUUAGCAAUAUUACGGCUA	-0.379 ± 0.11	-0.127 ± 0.11
AGUUAGCAAUAUUACGGGCU	-3.01 ± 0.28	-1.79 ± 0.24
AGUUAGCAAUAUUACGGUAC	-1.49 ± 0.2	-2.76 ± 0.28
AGUUAGCAAUAUUACGGUCU	-0.221 ± 0.081	-0.0741 ± 0.087
AGUUAGCAAUAUUACGGUGC	-3.15 ± 0.17	-2.44 ± 0.2
AGUUAGCAAUAUUACGUAUG	-1.57 ± 0.15	-2.67 ± 0.29
AGUUAGCAAUAUUACGUCAA	-3.02 ± 0.26	-0.718 ± 0.13
AGUUAGCAAUAUUACGUGCU	-2.35 ± 0.14	-1.78 ± 0.21
AUAAAGCAAUAUUACGAAAG	-2.01 ± 0.12	-1.25 ± 0.14

Sequence	self-splicing fitness (ln) (30 °C)	self-splicing fitness (ln) (37 °C)
AUAAAGCAAUAUUACGACCG	-0.25 ± 0.13	-0.14 ± 0.18
AUAAAGCAAUAUUACGAGCU	-0.379 ± 0.06	0.246 ± 0.086
AUAAAGCAAUAUUACGAGUC	-3.52 ± 0.13	-2.07 ± 0.14
AUAAAGCAAUAUUACGCGGG	-2.55 ± 0.13	-1.4 ± 0.16
AUAAAGCAAUAUUACGCGGU	-1.8 ± 0.12	-0.6 ± 0.11
AUAAAGCAAUAUUACGCUAG	-0.761 ± 0.1	-0.165 ± 0.12
AUAAAGCAAUAUUACGGAGU	-0.717 ± 0.072	-0.598 ± 0.088
AUAAAGCAAUAUUACGGAUU	-1.15 ± 0.077	0.0214 ± 0.091
AUAAAGCAAUAUUACGGCCA	0.232 ± 0.11	0.15 ± 0.13
AUAAAGCAAUAUUACGGCUA	0.756 ± 0.14	-0.15 ± 0.14
AUAAAGCAAUAUUACGGCUC	0.203 ± 0.11	1.04 ± 0.15
AUAAAGCAAUAUUACGGUAU	-0.836 ± 0.068	-0.0795 ± 0.1
AUAAAGCAAUAUUACGGUUG	-1.68 ± 0.1	-1.36 ± 0.15
AUAAAGCAAUAUUACGUCUG	-0.676 ± 0.079	-0.47 ± 0.11
AUAAAGCAAUAUUACGUGAA	-1.39 ± 0.094	-0.724 ± 0.12
AUAAAGCAAUAUUACGUGCG	-0.493 ± 0.083	0.137 ± 0.1
AUACAGCAAUAUUACGAAAG	-2.62 ± 0.19	-0.9 ± 0.17
AUACAGCAAUAUUACGAACC	-2.11 ± 0.15	-0.458 ± 0.16
AUACAGCAAUAUUACGAACU	-0.142 ± 0.079	0.0661 ± 0.099
AUACAGCAAUAUUACGAAGU	-3.31 ± 0.12	-1.22 ± 0.11
AUACAGCAAUAUUACGAAUC	-4.08 ± 0.25	-2.3 ± 0.18
